Experimental data: paper PMC4962041, “Human DNA-Damage-Inducible 2 Protein Is Structurally and Functionally Distinct from Its Yeast Ortholog” (Scientific Reports, 2016)
No end group written: not given here.

Legend:
human ubiquitin [1] = target: T1, human ubiquitin (human, UniProt P0CG48 1-76); assay: NMR titration; 15N-labelled UBQ (0.1 mM) with unlabelled peptide; 15N/1H-HSQC chemical shift perturbation; 50 mM sodium phosphate, pH 6.0 and pH 7.4, 25 °C; 1:1 model for the Kd; details: both partners purified
T1 construct: human ubiquitin, the cut product of the ubiquitin precursors; shifts were mapped on PDB 1D3Z; also called UBQ; mono-UBQ; source: 15N- or 15N/13C-labelled where observed by NMR

human ubiquitin [2] = target: T1, human ubiquitin; assay: NMR titration; 15N-labelled hDdi2 UBL (0.05 mM) with a 1- to 10-fold molar excess of UBQ; 50 mM sodium phosphate, pH 7.4, 25 °C; 1:1 model for the Kd; details: both partners purified
[3] = target: the molecule itself; assay: crystal structure; hDdi2 RVP (212-360), 1.9 Å, PDB 4RGH; hanging drop, 0.2 M ammonium acetate, 0.1 M Bis-Tris pH 5.5, 25% PEG 3350
[4] = target: the molecule itself; assay: SAXS; His-tagged HDD-RVP at 5 and 2.5 mg/ml in 25 mM Tris/HCl, 75 mM NaCl, 5% glycerol, 1 mM DTT, pH 7.4; molecular mass from the invariant Vc

B1: hDdi2-UIM peptide (peptide)
peptide: EEIADQELAEALQKSAEDAE-NH2
notes: Dissolved in DMSO before use; also called C-terminal hDdi2 UIM peptide; source: synthetic peptide (solid phase, HPLC purified)
B1 showed a Kd (human ubiquitin [1]) of 2.2 to 3.2 mM.

B2: hDdi2 UBL domain (residues 1-76) (domain or fragment, human, UniProt Q5TDH0 1-76, looked up)
chain: MLLTVYCVRRDLSEVTFSLQVDADFELHNFRALCELESGIPAAESQIVYAERPLTDNHRSLASYGLKDGDVVILRQ
notes: human DNA-damage-inducible 2 protein (Ddi homolog 2, 399 amino acids), residues 1-76: ubiquitin-like domain; also called N-terminal UBL domain of hDdi2; not shown: His tag, N-terminal, kept
Work on B2 yielded a Kd (human ubiquitin [2]) of 0.42 to 1.1 mM.

B3: hDdi2 RVP domain (residues 212-360) (domain or fragment)
chain: not shown
notes: Gln232 to Pro359 visible in the structure
B3: binds [3].

B4: hDdi2 HDD-RVP (residues 116-360) (domain or fragment, human, UniProt Q5TDH0 116-360, looked up)
chain: QQSHSSPGEITSSPQGLDNPALLRDMLLANPHELSLLKERNPPLAEALLSGDLEKFSRVLVEQQQDRARREQERIRLFSADPFDLEAQAKIEEDIRQQNIEENMTIAMEEAPESFGQVVMLYINCKVNGHPVKAFVDSGAQMTIMSQACAERCNIMRLVDRRWAGIAKGVGTQKIIGRVHLAQVQIEGDFLPCSFSILEEQPMDMLLGLDMLKRHQCSIDLKKNVLVIGTTGSQTTFLPEGELPE
notes: human DNA-damage-inducible 2 protein (Ddi homolog 2, 399 amino acids), residues 116-360 (lacking both UBL and UIM); Called His-tagged for the SAXS experiment; dimer by SAXS; not shown: His tag, N-terminal, kept
In the case of B4, the “stoichiometry N” value [4] is reported as 2.
